For one assay, the system named is IL-6 trans-signaling. Particulars: exogenous administration, mouse model of CAC; cited from earlier work.
A further assay concerns DSS-induced colitis. The assay is described as follows: Oral recombinant IL-6 during DSS-induced colitis in EGFR mutant mice. In kind it is in vivo, mouse. Conditions: for DSS-induced weight loss: IL-6 orally during DSS, FIG. 17B; for epithelial proliferation during colitis (BrdU): FIGS. 18A, 26A. The protocol:
Colitis was induced by administering 2.5% dextran sulfate sodium salt (DSS) (MP Biomedicals, 0216011080) in autoclaved drinking water for 5 d followed by 5 d of normal water (Chalaris, A. et al., 2010). Colon tumors in mice were induced as previously described (Wirtz, S. et al., 2007; Tanaka, T. et al., 2003). Briefly, mice were injected i.p. with 7.5 mg/kg azoxymethane (AOM) (Sigma-Aldrich, A5486) followed by repeated administration of DSS. 300 U recombinant mouse IL-6 (ImmunoTools GmbH, Germany) was administered by oral gavage.
Mice were injected with 10 mg/kg BrdU 2.5 hrs prior to sacrifice. The colons were extracted, flushed with ice cold PBS to remove feces, fixed overnight at 4° C. in neutral buffered 4% formaldehyde as “Swiss Rolls”, which were further dehydrated, embedded in paraffin and sectioned. Sections were stained with Haematoxylin and Eosin (Sigma), Alcian blue, Giemsa and PAS. Colitis severity and tumor stage were scored and graded by pathologists in a blinded manner according to previously described criteria (Dube, P. E. et al., 2012; Musteanu, M. et al., 2010). For immunohistochemistry, sections were dewaxed, rehydrated and boiled in Citrate buffer pH 6.1 (S1699, Dakocytomation, Glostrup, Denmark) for antigen recovery. Endogenous peroxidase was quenched by incubation with 3% H2O2 in TBS, followed by blocking with 10% goat serum in 2% BSA in TBS—0.1% Tween. Sections were then incubated overnight with antibodies against β-catenin (Cell Signaling, Danvers, Mass.; 9582), cleaved caspase 3 (Cell Signaling; 9661), lysozyme (Dako; A0099), EGFR (sc-03, Santa Cruz Biotechnology, Santa Cruz, Calif.), pTyr705-STAT3 (9145, Cell Signaling), survivin (Cell Signaling; 2808) and synaptophysin (GTX100865, GeneTex Irvine, Calif.), respectively. All sections were further treated with SignalStain® Boost (Cell Signaling; 8114) to detect bound antibody and with liquid3-Amino-9-Ethylcarbazole Chromogen/Substrate (BP 1108, ID LABS™ ON, Canada) for peroxidase staining and counterstained with Haematoxylin (HHS32, Sigma-Aldrich). For BrdU staining, sections were treated with 2 N HCl after antigen recovery, blocked as described above and incubated with anti-BrdU antibody (347580, BD Biosciences) and further with secondary antibody (Invitrogen A-11018) and counterstained with DAPI.
Intestinal barrier permeability was assessed as previously described (Chalaris, A. et al., 2010). Briefly, mice were orally gavaged with 60 mg/kg FITC-Dextran (Sigma FD4), food and water were withdrawn 4 h prior to gavage. FITC levels were determined in the serum 4 h post gavage by absorption at 488 nm using standard dilutions of FITC-Dextran as reference.

B1: gp130: glycoprotein-130, exogenously administered to inhibit IL-6 trans-signaling (protein, UniProt P40189 23-918, looked up)
Interleukin-6 receptor …: ELLDPCGYISPESPVVQLHSNFTAVCVLKEKCMDYFHVNANYIVWKTNHFTIPKEQYTIINRTASSVTFTDIASLNIQLTCNILTFGQLEQNVYGITIISGLPPEKPKNLSCIVNEGKKMRCEWDGGRETHLETNFTLKSEWATHKFADCKAKRDTPTSCTVDYSTVYFVNIEVWVEAENALGKVTSDHINFDPVYKVKPNPPHNLSVINSEELSSILKLTWTNPSIKSVIILKYNIQYRTKDASTWSQIPPEDTASTRSSFTVQDLKPFTEYVFRIRCMKEDGKGYWSDWSEEASGITYEDRPSKAPSFWYKIDPSHTQGYRTVQLVWKTLPPFEANGKILDYEVTLTRWKSHLQNYTVNATKLTVNLTNDRYLATLTVRNLVGKSDAAVLTIPACDFQATHPVMDLKAFPKDNMLWVEWTTPRESVKKYILEWCVLSDKAPCITDWQQEDGTVHRTYLRGNLAESKCYLITVTPVYADGPGSPESIKAYLKQAPPSKGPTVRTKKVGKNEAVLEWDQLPVDVQNGFIRNYTIFYRTIIGNETAVNVDSSHTEYTLSSLTSDTLYMVRMAAYTDEGGKDGPEFTFTTPKFAQGEIEAIVVPVCLAFLLTTLLGVLFCFNKRDLIKKHIWPNVPDPSKSHIAQWSPHTPPRHNFNSKDQMYSDGNFTDVSVVEIEANDKKPFPEDLKSLDLFKKEKINTEGHSSGIGGSSCMSSSRPSISSSDENESSQNTSSTVQYSTVVHSGYRHQVPSVQVFSRSESTQPLLDSEERPEDLQLVDHVDGGDGILPRQQYFKQNCSQHESSPDISHFERSKQVSSVNEEDFVRLKQQISDHISQSCGSGQMKMFQEVSAADAFGPGTEGQVERFETVGMEAATDEGMPKSYLPQTVRQGGYMPQ
For B1, the “colitis and tumor development” value in the assay with IL-6 trans-signaling is recorded as “substantial decrease”.

B2: IL-6: recombinant mouse IL-6 administered by oral gavage (protein, UniProt P08505 25-211, looked up)
Interleukin-6: FPTSQVRRGDFTEDTTPNRPVYTTSQVGGLITHVLWEIVEMRKELCNGNSDCMNNDDALAENNLKLPEIQRNDGCYQTGYNQEICLLKISSGLLEYHSYLEYMKNNLKDNKKDKARVLQRDTETLIHIFNQEVKDLHKIVLPTPISNALLTDKLESQKEWLRTKTIQFILKSLEEFLKVTLRSTRQT
Turning to B2, the DSS-induced weight loss entry in the assay on DSS-induced colitis (Egfr^wa2/wa2 mice) is reported as “partially rescued”; in the assay on DSS-induced colitis (Egfr^ΔMYL mice), “able to protect”. Also, the results for the “epithelial proliferation during colitis (BrdU)” value in the assay on DSS-induced colitis (Egfr^wa2/wa2 mice) and in the assay with DSS-induced colitis (Egfr^ΔMYL mice) were “partially” and “fully”, respectively. For the same molecule, the “apoptosis (cleaved Caspase 3)” value with DSS-induced colitis (Egfr^ΔIEC mice) was “decreased”; in the assay with DSS-induced colitis (Egfr^ΔMYL and Egfr^wa2/wa2 mice, FIGS. 18B, 26B) it was “not affected”. Moreover, the “pY-STAT3 nuclear localization in crypts” value in the assay with DSS-induced colitis (Egfr^ΔMYL mice during DSS treatment, FIGS. 18C, 18D) is reported as “fully restored”. The number of ulcers entry with DSS-induced colitis (Egfr^ΔMYL mice, FIG. 17D) was “decreased”. For the same molecule, in the assay on DSS-induced colitis (Egfr^ΔMYL mice, FIG. 17E), the “loss of epithelial barrier function (FITC-dextran in serum)” value was “protected”.
